These results are taken from patent publication WO2021110095A1 (dated 2021).

This experiment addresses human GPC3 full-length protein on cells (CHO-K1-hGPC3; cells expressing GPC3) (human, UniProt P51654 25-580). Briefly: cell-based or functional assay.

human GPC3 full-length protein on cells (CHO-K1-hGPC3; cells expressing GPC3), sequence (P51654 25-580, form in doubt): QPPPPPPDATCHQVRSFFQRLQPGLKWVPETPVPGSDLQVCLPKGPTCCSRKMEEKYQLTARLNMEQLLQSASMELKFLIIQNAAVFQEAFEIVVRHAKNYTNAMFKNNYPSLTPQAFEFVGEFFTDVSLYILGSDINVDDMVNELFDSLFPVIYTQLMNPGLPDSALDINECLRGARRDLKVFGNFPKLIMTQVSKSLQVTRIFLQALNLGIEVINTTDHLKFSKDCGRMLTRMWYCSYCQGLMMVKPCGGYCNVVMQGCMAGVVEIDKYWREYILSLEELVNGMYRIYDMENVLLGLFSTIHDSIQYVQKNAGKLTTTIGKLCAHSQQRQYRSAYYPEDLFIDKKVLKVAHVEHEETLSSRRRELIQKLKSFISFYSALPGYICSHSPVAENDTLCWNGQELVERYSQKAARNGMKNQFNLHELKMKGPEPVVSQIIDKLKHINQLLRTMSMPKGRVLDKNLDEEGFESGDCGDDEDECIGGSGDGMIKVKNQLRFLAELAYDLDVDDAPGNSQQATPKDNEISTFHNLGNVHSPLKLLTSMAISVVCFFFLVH

B1: humanized antibody Ab9 (antibody, human IgG1, kappa, V domains shown)
VH: QVQLVQSGAEVKKPGASVKVSCKASGYTFTDYEMHWVRQAPGQGLEWMGAIDPKTGRTAYNQKFKDRVTLTADKSTSTAYMELSSLTSEDTAVYYCTRYYSYAYWGQGTLVTVSS
VL: DVVMTQSPLSLSVTPGEPASISCRSSQSLVHSNRNTYLQWYLQKPGQPPQLLIYKVSNRFSGVPDRFSGSGSGTDFTLKISRVEAEDVGVYYCSQSIHVPYTFGQGTKLEIKR
As to B1, the “CDC, IC50” value was 0.308 nM.
